Ends that are not written are not given here.
B1: human α-CGRP 1-36-COOH (peptide)
peptide: ACDTATCVTHRLAGLLSRSGGVVKNNFVPTNVGSKA-OH
modifications: ends and bridges not checked
notes: also called Peptide 1-36 (not amidated at the C-terminus)

Target: T1, antibody G1 Fab fragment
T1 construct: purified on Ni-NTA (tag not described); also called antibody G1 Fabs
Assay: Biacore, 10 uM peptide with 50 nM G1 Fab over human α-CGRP on chip

T1 sequence (VH, as listed by the source, chain 1 of 2): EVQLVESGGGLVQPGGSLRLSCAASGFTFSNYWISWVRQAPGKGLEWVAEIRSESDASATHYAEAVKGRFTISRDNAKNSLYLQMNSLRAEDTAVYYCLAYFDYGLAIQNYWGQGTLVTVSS
T1 sequence (VL, as listed by the source, chain 2 of 2): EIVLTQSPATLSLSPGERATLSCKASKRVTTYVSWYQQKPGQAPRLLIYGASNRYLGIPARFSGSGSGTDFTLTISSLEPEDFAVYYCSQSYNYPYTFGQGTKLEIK

Going from B1 to SGGVVKNNFVPTNVGSAAF-NH2 (also: N-terminal biotin when captured on the chip) [human α-CGRP K35A (19-37)], the “% of binding blocked” value rises from about 40% to 100%.

SGGVVKNNFVATNVGSKAF-NH2 [human α-CGRP P29A (19-37)] and SGGVVKNNFVPTNVGSEAF-NH2 (also: N-terminal biotin when captured on the chip) [human α-CGRP K35E (19-37)] are the same in “% of binding blocked” value: 100% for the first, 100% for the second.

SGGVVKNNFVPTNVGSMAF-NH2 (also: N-terminal biotin when captured on the chip) [human α-CGRP K35M (19-37)] and SCNTATCVTHRLAGLLSRSGGVVKDNFVPTNVGSEAF-NH2 (ends and bridges not checked; also: N-terminal biotin when captured on the chip, also called rat α (1-37); α-rat) [rat α-CGRP (1-37)] are the same in “% of binding blocked” value: 100% for the first, 100% for the second.
